Measured values from patent US20230365671A1 (ONCOONE RESEARCH AND DEVELOPMENT, published 2023).

Columns and labels:
[1] = biological target: T1, oxMIF: recombinant human MIF immobilized into ELISA plates (transforming MIF to oxMIF) (human, UniProt P14174 2-115); experiment: ELISA, antibody titrated on plate-immobilized recombinant human MIF (oxMIF), goat anti-human IgG(Fc)-HRP; EC50 of 4-parameter fit given as KD, two experiments
T1 construct: Same polypeptide as redMIF; differs in conformation (oxMIF isoform); also called immobilized MIF; immobilized oxMIF
Protocol: Recombinant human MIF diluted in PBS at 1 μg/ml was immobilized into ELISA plates overnight at 4° C. (transforming MIF to oxMIF according to Thiele et al., 2015). After blocking, serial dilutions of anti-oxMIF antibodies were added to the plates. Finally, bound antibodies were detected with Goat anti-human IgG(Fc)-HRP conjugate and tetramethylbenzidine (TMB) as substrate. The chromogenic reaction was stopped with 3M H₂SO₄ and OD was measured at 450 nm.

[2] = biological target: T2, Human oxMIF (human recombinant MIF treated with 0.2% Proclin300, oxMIF surrogate) (human, UniProt P14174 2-115, treated with 0.2% Proclin300 (active component 5-chloro-2-methyl-4-isothiazolin-3-one) for 3 h to transform MIF into an oxMIF surrogate); experiment: SPR (Biacore 3000), antibody amine-coupled to CM5 chip, Proclin300-treated MIF 50-150 nM as analyte, 1:1 Langmuir with mass transfer; mean of flow cells 2-4, SD +/-2.30 nM
T2 construct: SPR analyte; also called Proclin300 treated MIF; soluble human oxMIF
Protocol: (§1) FC1 was used as reference cell and was only reacted with buffers. Mouse or human recombinant MIF were diluted in HBS-EP buffer (GE Healthcare) to concentrations of 50, 75, 100, or 150 nM in the presence of 0.2% Proclin300 (active component 5-chloro-2-methyl-4-isothiazolin-3-one; Sigma) to transform MIF into an oxMIF surrogate (Thiele M et al., 2015) for 3 h at room temperature. Proclin300 treated MIF was applied to immobilized anti-oxMIF antibodies at a flow rate of 30 μl/min for 3 min using a Biacore™ 3000 Instrument (GE Healthcare). Dissociation time was 300 seconds, and the chip was regenerated using 10 mM HCl for 3 minutes. The kinetics of the concentration series were analyzed by local simultaneous association/dissociation fitting of each binding curve after subtraction of background from the reference cell (FC1) using the iterative Langmuir 1:1 interaction model with mass transfer compensation provided by the BiaEvaluation 4.1 software (GE Healthcare). Data are represented as mean+/−SD (standard deviation) of the calculated KD values of Flow Cells 2-4.

[3] = biological target: T2, Human oxMIF (human recombinant MIF …); experiment: SPR (Biacore 3000), antibody amine-coupled to CM5 chip, Proclin300-treated MIF 50-150 nM as analyte, 1:1 Langmuir with mass transfer; mean of flow cells 2-4, SD +/-0.83 nM
Protocol: as §1

T1 sequence (P14174 2-115 limits assumed): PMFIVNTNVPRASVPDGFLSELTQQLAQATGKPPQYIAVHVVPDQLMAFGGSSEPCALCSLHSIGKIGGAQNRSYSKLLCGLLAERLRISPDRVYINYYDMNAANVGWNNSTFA
T2 sequence (P14174 2-115 limits assumed): as above

B1: anti-oxMIF antibody C0108 (antibody, human IgG1, kappa)
heavy: EVQLQESGGGLVQPGGSLRLSCAASGFTFSIYSMNWVRQAPGKGLEWVSSIGSSGGTTYYADSVKGRFTISRDNSKNTLYLQMNSLRAEDTAVYYCAGSQYLYGMDVWGQGTTVTVSSASTKGPSVFPLAPSSKSTSGGTAALGCLVKDYFPEPVTVSWNSGALTSGVHTFPAVLQSSGLYSLSSVVTVPSSSLGTQTYICNVNHKPSNTKVDKKVEPKSCDKTHTCPPCPAPELLGGPDVFLFPPKPKDTLMISRTPEVTCVVVDVSHEDPEVQFNWYVDGVEVHNAKTKPREEQFNSTFRVVSVLTVVHQDWLNGKEYKCKVSNKALPAPEEKTISKTKGQPREPQVYTLPPSREEMTKNQVSLTCLVKGFYPSDIAVEWESNGQPENNYKTTPPMLDSDGSFFLYSKLTVDKSRWQQGNVFSCSVMHEALHNHYTQKSLSLSPG
light: DIQMTQSPSSLSASVGDRVTITCRSSQRIMTYLNWYQQKPGKAPKLLIYVGSHSQSGVPSRFRGSGSETDFTLTISGLQPEDSATYYCQQSFFTPLTFGGGTKVEIKRTVAAPSVFIFPPSDEQLKSGTASVVCLLNNFYPREAKVQWKVDNALQSGNSQESVTEQDSKDSTYSLSSTLTLSKADYEKHKVYACEVTHQGLSSPVTKSFNRGEC
notes: ADCC/ADCP enhancing mutations in the Fc portion
[1]
  Kd: 0.3 nM
[2]
  Kd: 6.06 nM

B2: anti-oxMIF antibody C0109 (antibody, human IgG1, kappa)
heavy: EVQLQESGGGLVQPGGSLRLSCAASGFTFSIYSMNWVRQAPGKGLEWVSSIGSSGGTTYYADSVKGRFTISRDNSKNTLYLQMNSLRAEDTAVYYCAGSQYLYGMDVWGQGTTVTVSSASTKGPSVFPLAPSSKSTSGGTAALGCLVKDYFPEPVTVSWNSGALTSGVHTFPAVLQSSGLYSLSSVVTVPSSSLGTQTYICNVNHKPSNTKVDKKVEPKSCDKTHTCPPCPAPELLGGPDVFLFPPKPKDTLMISRTPEVTCVVVDVSHEDPEVQFNWYVDGVEVHNAKTKPREEQFNSTFRVVSVLTVVHQDWLNGKEYKCKVSNKALPAPEEKTISKTKGQPREPQVYTLPPSREEMTKNQVSLTCLVKGFYPSDIAVEWESNGQPENNYKTTPPMLDSDGSFFLYSKLTVDKSRWQQGNVFSCSVMHEALHNHYTQKSLSLSPG
light: DIQMTQSPSSLSASVGDRVTITCRSSQRILTYLNWYQQKPGKAPKLLIYVGSHSQSGVPSRFRGSGSETDFTLTISGLQSEDSATYYCQQSFFTPLTFGGGTKVEIKRTVAAPSVFIFPPSDEQLKSGTASVVCLLNNFYPREAKVQWKVDNALQSGNSQESVTEQDSKDSTYSLSSTLTLSKADYEKHKVYACEVTHQGLSSPVTKSFNRGEC
notes: as for B1
[1]
  Kd: 0.3 nM
[3]
  Kd: 3.69 nM
